For one substance, response (NS5A:GST-SH3 ratio (%)) results are on record in paper PMC4681064.

Holding throughout (assay): GST pulldown, Western blot densitometry
What all share (details): incubated overnight with lysates; GST-only control 10 (PA2 lysate), 8 (WT lysate)

The target in experiment [1] is GST-tagged CMS SH3 domain III.
Experiment [2] addresses GST-tagged CMS SH3 domain II.
Experiment [3] addresses GST-tagged CMS SH3 domain I.

Consider “HCV NS5A protein (WT) expressed from SGR-neo-JFH-1 (from UniProt Q99IB8) PA2: P2 motif PTPPPR -> ATPAAA (P->A; P->A; P->A; R->A; residue numbers not printed)”, for which the figures for the response (NS5A:GST-SH3 ratio (%)) in experiment [1], in experiment [2] and in experiment [3] were 10, 9 and 16, respectively.
